# Assay results taken from patent US20250304644A1, “PEPTIDES TRIPLE AGONISTS OF GIP, GLP-1 AND GLP-2” (BAINAN BIOTECH APS, priority 2021, published 2025).
# Where no end group is shown, it is not given here. [ ]: non-standard residue; d: D form. The star is where a group is joined. Decanoyl = CCCCCCCCCC(=O)*; Aib = CC(C)(N)C(=O)O
# T1: human GLP-2R (glucagon-like peptide-2 receptor) (human, UniProt O95838 1-553)
# T1 sequence (looked up): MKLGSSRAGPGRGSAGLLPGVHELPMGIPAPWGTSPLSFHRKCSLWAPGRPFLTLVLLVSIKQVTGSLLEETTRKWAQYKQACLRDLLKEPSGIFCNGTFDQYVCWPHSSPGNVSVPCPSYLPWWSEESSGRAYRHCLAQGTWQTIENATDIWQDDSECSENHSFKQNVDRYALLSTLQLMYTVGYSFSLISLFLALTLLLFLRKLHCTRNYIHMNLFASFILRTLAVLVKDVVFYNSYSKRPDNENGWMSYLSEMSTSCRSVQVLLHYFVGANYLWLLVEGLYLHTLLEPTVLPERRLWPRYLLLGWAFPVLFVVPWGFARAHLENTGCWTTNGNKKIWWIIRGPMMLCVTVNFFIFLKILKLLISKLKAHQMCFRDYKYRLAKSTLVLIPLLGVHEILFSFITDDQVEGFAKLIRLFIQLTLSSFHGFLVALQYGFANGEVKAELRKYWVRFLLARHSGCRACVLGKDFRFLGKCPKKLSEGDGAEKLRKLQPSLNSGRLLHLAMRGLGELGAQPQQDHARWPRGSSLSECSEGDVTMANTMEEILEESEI
# T2: human GIPR (glucose-dependent insulinotropic polypeptide receptor) (human, UniProt P48546 22-466)
# T2 sequence (looked up): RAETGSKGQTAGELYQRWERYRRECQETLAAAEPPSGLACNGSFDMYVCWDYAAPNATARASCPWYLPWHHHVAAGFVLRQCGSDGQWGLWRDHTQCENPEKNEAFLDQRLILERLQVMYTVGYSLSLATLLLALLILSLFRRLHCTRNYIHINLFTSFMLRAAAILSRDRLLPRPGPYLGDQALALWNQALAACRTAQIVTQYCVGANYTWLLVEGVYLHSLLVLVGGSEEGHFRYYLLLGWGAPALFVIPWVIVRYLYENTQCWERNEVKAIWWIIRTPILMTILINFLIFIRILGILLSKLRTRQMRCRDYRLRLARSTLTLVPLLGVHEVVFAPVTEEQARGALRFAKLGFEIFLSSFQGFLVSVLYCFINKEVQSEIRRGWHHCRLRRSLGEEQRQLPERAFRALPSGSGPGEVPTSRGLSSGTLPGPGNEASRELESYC
# Legend:
# Experiment in all cases: cell-based or functional assay
# [1] = target: T1, human GLP-2R (glucagon-like peptide-2 …)
# [2] = target: human GLP-1R (glucagon-like peptide-1 receptor) (human, UniProt P43220 24-463)
# [3] = target: T2, human GIPR (glucose-dependent …)
binder,measurement,setting,value
"HXDGTFISDYSTILDNLAARDFINWLIQTKITK (Aib at position 2; K33 acylated with C10, K(C10); C-terminus -OH) [Compound 2]",Efficacy GLP-2R,[1],105
same,Efficacy GLP-1R,[2],84
same,Efficacy GIPR,[3],99
H-H[Aib]DGTFISDYSTILENLAARDFINWLIQTKITK(Decanoyl)-NH2 (SMILES CCCCCCCCCC(=O)NCCCC[C@H](NC(=O)[C@@H](NC(=O)[C@@H](NC(=O)[C@H](CCCCN)NC(=O)[C@@H](NC(=O)[C@H](CCC(N)=O)NC(=O)[C@@H](NC(=O)[C@H](CC(C)C)NC(=O)[C@H](Cc1c[nH]c2ccccc12)NC(=O)[C@H](CC(N)=O)NC(=O)[C@@H](NC(=O)[C@H](Cc1ccccc1)NC(=O)[C@H](CC(=O)O)NC(=O)[C@H](CCCNC(=N)N)NC(=O)[C@H](C)NC(=O)[C@H](C)NC(=O)[C@H](CC(C)C)NC(=O)[C@H](CC(N)=O)NC(=O)[C@H](CCC(=O)O)NC(=O)[C@H](CC(C)C)NC(=O)[C@@H](NC(=O)[C@@H](NC(=O)[C@H](CO)NC(=O)[C@H](Cc1ccc(O)cc1)NC(=O)[C@H](CC(=O)O)NC(=O)[C@H](CO)NC(=O)[C@@H](NC(=O)[C@H](Cc1ccccc1)NC(=O)[C@@H](NC(=O)CNC(=O)[C@H](CC(=O)O)NC(=O)C(C)(C)NC(=O)[C@@H](N)Cc1c[nH]cn1)[C@@H](C)O)[C@@H](C)CC)[C@@H](C)O)[C@@H](C)CC)[C@@H](C)CC)[C@@H](C)CC)[C@@H](C)O)[C@@H](C)CC)[C@@H](C)O)C(N)=O) [Compound 7],EC50 (nM) GLP-2R,[1],12.6 nM
same,Efficacy GLP-2R,[1],97
same,logEC50 GLP-2R,[1],7.9
same,EC50 (nM) GIPR,[3],0.794 nM
same,Efficacy GIPR,[3],96
same,pEC50 GIPR,[3],9.1
H[Aib]DGTFISDYSTILDNIAARDFINWLIQTKITK(Decanoyl)-NH2 (N-terminus assumed; SMILES CCCCCCCCCC(=O)NCCCC[C@H](NC(=O)[C@@H](NC(=O)[C@@H](NC(=O)[C@H](CCCCN)NC(=O)[C@@H](NC(=O)[C@H](CCC(N)=O)NC(=O)[C@@H](NC(=O)[C@H](CC(C)C)NC(=O)[C@H](Cc1c[nH]c2ccccc12)NC(=O)[C@H](CC(N)=O)NC(=O)[C@@H](NC(=O)[C@H](Cc1ccccc1)NC(=O)[C@H](CC(=O)O)NC(=O)[C@H](CCCNC(=N)N)NC(=O)[C@H](C)NC(=O)[C@H](C)NC(=O)[C@@H](NC(=O)[C@H](CC(N)=O)NC(=O)[C@H](CC(=O)O)NC(=O)[C@H](CC(C)C)NC(=O)[C@@H](NC(=O)[C@@H](NC(=O)[C@H](CO)NC(=O)[C@H](Cc1ccc(O)cc1)NC(=O)[C@H](CC(=O)O)NC(=O)[C@H](CO)NC(=O)[C@@H](NC(=O)[C@H](Cc1ccccc1)NC(=O)[C@@H](NC(=O)CNC(=O)[C@H](CC(=O)O)NC(=O)C(C)(C)NC(=O)[C@@H](N)Cc1c[nH]cn1)[C@@H](C)O)[C@@H](C)CC)[C@@H](C)O)[C@@H](C)CC)[C@@H](C)CC)[C@@H](C)CC)[C@@H](C)CC)[C@@H](C)O)[C@@H](C)CC)[C@@H](C)O)C(N)=O) [Compound 15],EC50 (nM) GLP-1R,[2],4.73 nM
same,Efficacy GLP-1R,[2],90
same,logEC50 GLP-1R,[2],8.3
same,EC50 (nM) GIPR,[3],0.794 nM
same,Efficacy GIPR,[3],98
same,pEC50 GIPR,[3],9.1
H[Aib]DGTFISDYSTILDLLAARDFINWLIQTKITK(Decanoyl)-NH2 (N-terminus assumed; SMILES CCCCCCCCCC(=O)NCCCC[C@H](NC(=O)[C@@H](NC(=O)[C@@H](NC(=O)[C@H](CCCCN)NC(=O)[C@@H](NC(=O)[C@H](CCC(N)=O)NC(=O)[C@@H](NC(=O)[C@H](CC(C)C)NC(=O)[C@H](Cc1c[nH]c2ccccc12)NC(=O)[C@H](CC(N)=O)NC(=O)[C@@H](NC(=O)[C@H](Cc1ccccc1)NC(=O)[C@H](CC(=O)O)NC(=O)[C@H](CCCNC(=N)N)NC(=O)[C@H](C)NC(=O)[C@H](C)NC(=O)[C@H](CC(C)C)NC(=O)[C@H](CC(C)C)NC(=O)[C@H](CC(=O)O)NC(=O)[C@H](CC(C)C)NC(=O)[C@@H](NC(=O)[C@@H](NC(=O)[C@H](CO)NC(=O)[C@H](Cc1ccc(O)cc1)NC(=O)[C@H](CC(=O)O)NC(=O)[C@H](CO)NC(=O)[C@@H](NC(=O)[C@H](Cc1ccccc1)NC(=O)[C@@H](NC(=O)CNC(=O)[C@H](CC(=O)O)NC(=O)C(C)(C)NC(=O)[C@@H](N)Cc1c[nH]cn1)[C@@H](C)O)[C@@H](C)CC)[C@@H](C)O)[C@@H](C)CC)[C@@H](C)CC)[C@@H](C)CC)[C@@H](C)O)[C@@H](C)CC)[C@@H](C)O)C(N)=O) [Compound 4],EC50 (nM) GLP-2R,[1],28.2 nM
same,Efficacy GLP-2R,[1],92
same,logEC50 GLP-2R,[1],7.6
same,EC50 (nM) GLP-1R,[2],25.1 nM
same,Efficacy GLP-1R,[2],82
same,logEC50 GLP-1R,[2],7.6
same,EC50 (nM) GIPR,[3],1.12 nM
same,Efficacy GIPR,[3],102
same,pEC50 GIPR,[3],9
H-H[Aib]DGTFISDYSTILDNLAAREFINWLIQTKITK(Decanoyl)-NH2 (SMILES CCCCCCCCCC(=O)NCCCC[C@H](NC(=O)[C@@H](NC(=O)[C@@H](NC(=O)[C@H](CCCCN)NC(=O)[C@@H](NC(=O)[C@H](CCC(N)=O)NC(=O)[C@@H](NC(=O)[C@H](CC(C)C)NC(=O)[C@H](Cc1c[nH]c2ccccc12)NC(=O)[C@H](CC(N)=O)NC(=O)[C@@H](NC(=O)[C@H](Cc1ccccc1)NC(=O)[C@H](CCC(=O)O)NC(=O)[C@H](CCCNC(=N)N)NC(=O)[C@H](C)NC(=O)[C@H](C)NC(=O)[C@H](CC(C)C)NC(=O)[C@H](CC(N)=O)NC(=O)[C@H](CC(=O)O)NC(=O)[C@H](CC(C)C)NC(=O)[C@@H](NC(=O)[C@@H](NC(=O)[C@H](CO)NC(=O)[C@H](Cc1ccc(O)cc1)NC(=O)[C@H](CC(=O)O)NC(=O)[C@H](CO)NC(=O)[C@@H](NC(=O)[C@H](Cc1ccccc1)NC(=O)[C@@H](NC(=O)CNC(=O)[C@H](CC(=O)O)NC(=O)C(C)(C)NC(=O)[C@@H](N)Cc1c[nH]cn1)[C@@H](C)O)[C@@H](C)CC)[C@@H](C)O)[C@@H](C)CC)[C@@H](C)CC)[C@@H](C)CC)[C@@H](C)O)[C@@H](C)CC)[C@@H](C)O)C(N)=O) [Compound 8],EC50 (nM) GLP-1R,[2],2.24 nM
same,Efficacy GLP-1R,[2],98
same,logEC50 GLP-1R,[2],8.7
same,EC50 (nM) GIPR,[3],1.12 nM
same,Efficacy GIPR,[3],99
same,pEC50 GIPR,[3],9
